According to patent US20220152100A1, “METHODS FOR CONTROLLED ACTIVATION OR ELIMINATION OF THERAPEUTIC CELLS” (Bellicum Pharmaceuticals, Inc., priority 2014, published 2022):
Changes are numbered by the printed parent chain. In names and notes the source's numbering stands.

B1: D330A-N405Q: chimeric modified Caspase-9 polypeptide, double mutant, SEQ ID NO: 28 (protein)
chain: GFGDVGALESLRGNADLAYILSMEPCGHCLIINNVNFCRESGLRTRTGSNIDCEKLRRRFSSLHFMVEVKGDLTAKKMVLALLELARQDHGALDCCVVVILSHGCQASHLQFPGAVYGTDGCPVSVEKIVNIFNGTSCPSLGGKPKLFFIQACGGEQKDHGFEVASTSPEDESPGSNPEPDATPFQEGLRTFDQLAAISSLPTPSDIFVSYSTFPGFVSWRDPKSGSWYVETLDDIFEQWAHSEDLQSLLLRVANAVSVKGIYKQMPGCFQFLRKKLFFKTS
B2: N405A: chimeric modified Caspase-9 polypeptide (protein, UniProt P55211 1-416, looked up, variant N405A)
chain: MDEADRRLLRRCRLRLVEELQVDQLWDALLSRELFRPHMIEDIQRAGSGSRRDQARQLIIDLETRGSQALPLFISCLEDTGQDMLASFLRTNRQAAKLSKPTLENLTPVVLRPEIRKPEVLRPETPRPVDIGSGGFGDVGALESLRGNADLAYILSMEPCGHCLIINNVNFCRESGLRTRTGSNIDCEKLRRRFSSLHFMVEVKGDLTAKKMVLALLELAQQDHGALDCCVVVILSHGCQASHLQFPGAVYGTDGCPVSVEKIVNIFNGTSCPSLGGKPKLFFIQACGGEQKDHGFEVASTSPEDESPGSNPEPDATPFQEGLRTFDQLDAISSLPTPSDIFVSYSTFPGFVSWRDPKSGSWYVETLDDIFEQWAHSEDLQSLLLRVANAVSVKGIYKQMPGCFAFLRKKLFFKTS
modifications: chimeric, fused to dimerization domain
notes: chimeric modified Caspase-9 polypeptide
B3: ^402GCFNF^406AAAAA: Caspase-9 with dimerization residues 402-406 replaced by AAAAA (protein, UniProt P55211 1-416, looked up, variant G402A C403A F404A N405A F406A)
chain: B2 chain with G402A, C403A, F404A, F406A
B4: G402Y: chimeric modified Caspase-9 polypeptide (protein, UniProt P55211 1-416, looked up, variant G402Y)
chain: B2 chain with G402Y, A405N
modifications: chimeric, fused to dimerization domain
notes: as for B2
B5: G402I: chimeric modified Caspase-9 polypeptide (protein, UniProt P55211 1-416, looked up, variant G402I)
chain: B2 chain with G402I, A405N
modifications: chimeric, fused to dimerization domain
notes: as for B2
B6: ^402GCFNF^406ISAQT (Casp-10): Caspase-9 with dimerization residues 402-406 replaced by those of Caspase-10 (protein, UniProt P55211 1-416, looked up, variant G402I C403S F404A N405Q F406T)
chain: B2 chain with G402I, C403S, F404A, A405Q, F406T
modifications: Caspase-10 dimerization residues swapped in
B7: N405F: chimeric modified Caspase-9 polypeptide (protein, UniProt P55211 1-416, looked up, variant N405F)
chain: B2 chain with A405F
modifications: chimeric, fused to dimerization domain
notes: as for B2
B8: C403P: chimeric modified Caspase-9 polypeptide (protein, UniProt P55211 1-416, looked up, variant C403P)
chain: B2 chain with C403P, A405N
modifications: chimeric, fused to dimerization domain
notes: as for B2
B9: ^316ATPF^319AVPI: Caspase-9 with XIAP-binding tetrapeptide ATPF replaced by AVPI from SMAC/DIABLO (protein, UniProt P55211 1-416, looked up, variant T317V F319I)
chain: B2 chain with T317V, F319I, A405N
modifications: ATPF replaced by SMAC AVPI motif
B10: D327G: chimeric modified Caspase-9 polypeptide (protein)
chain: VDGFGDVGALESLRGNADLAYILSMEPCGHCLIINNVNFCRESGLRTRTGSNIDCEKLRRRFSSLHFMVEVKGDLTAKKMVLALLELARQDHGALDCCVVVILSHGCQASHLQFPGAVYGTDGCPVSVEKIVNIFNGTSCPSLGGKPKLFFIQACGGEQKDHGFEVASTSPEDESPGSNPEPDATPFQEGLRTFGQLDAISSLPTPSDIFVSYSTFPGFVSWRDPKSGSWYVETLDDIFEQWAHSEDLQSLLLRVANAVSVKGIYKQMPGCFNFLRKKLFFKTSASRA
B11: Q328K: chimeric modified Caspase-9 polypeptide (protein)
chain: B10 chain with G195D, Q196K
B12: L329K: chimeric modified Caspase-9 polypeptide (protein)
chain: B10 chain with G195D, L197K
B13: F326K: chimeric modified Caspase-9 polypeptide (protein)
chain: B10 chain with F194K, G195D
B14: D330N: chimeric modified Caspase-9 polypeptide (protein)
chain: B10 chain with G195D, D198N
B15: D327R: chimeric modified Caspase-9 polypeptide (protein)
chain: B10 chain with G195R
B16: T317A: chimeric modified Caspase-9 polypeptide (protein)
chain: B10 chain with T185A, G195D
B17: D327K: chimeric modified Caspase-9 polypeptide (protein)
chain: B10 chain with G195K
B18: L329G: chimeric modified Caspase-9 polypeptide (protein)
chain: B10 chain with G195D, L197G
B19: A331K: chimeric modified Caspase-9 polypeptide (protein)
chain: B10 chain with G195D, A199K
B20: T317C: chimeric modified Caspase-9 polypeptide (protein)
chain: B10 chain with T185C, G195D
B21: Q328R: chimeric modified Caspase-9 polypeptide (protein)
chain: B10 chain with G195D, Q196R
B22: D330V: chimeric modified Caspase-9 polypeptide (protein)
chain: B10 chain with G195D, D198V

System: HEK293T/16 cells
Assay: SEAP-based surrogate killing assay of iCasp9 mutants
Format: cell-based, human
Conditions: 1 μg iCasp9 per million cells
Description: Early passage HEK293T/16 cells (ATCC, Manassas, Va.) were maintained in IMDM, GlutaMAX™ (Life Technologies, Carlsbad, Calif.) supplemented with 10% FBS, 100 U/mL penicillin, and 100 […] until transfection in a humidified, 37° C., 5% CO2/95% air atmosphere. Cells in logarithmic-phase growth were transiently transfected with 800 ng to 2 μg of expression plasmid encoding iCasp9 mutants and 500 ng of an expression plasmid encoding SRα promoter driven SEAP per million cells in 15-mL conical tubes. […] GeneJammer® Transfection Reagent at a ratio of 3 μl per ug of plasmid DNA was used to transiently transfect HEK293T/16 cells in the absence of antibiotics. 100 μl or 2 mL of the transfection mixture was added to each well in 96-well or 6-well plate, respectively.
Briefly, after 65° C. heat denaturation for 45 minutes to reduce background caused by endogenous (and serum-derived) alkaline phosphatases that are sensitive to heat, 5 μl of supernatants was added to 95 μl of PBS and added to 100 μl of substrate buffer, containing 1 μl of 100 mM 4-methylumbelliferyl phosphate (4-MUP; Sigma, St. Louis, Mo.) re-suspended in 2 M diethanolamine. Hydrolysis of 4-MUP by SEAP produces a fluorescent […] with excitation/emission (355/460 nm), which can be easily measured. Assays were performed in black opaque 96-well plates to minimize fluorescence leakage between wells. […] of the mixture was seeded onto each well of a 96-well plate. […] For the assay, 4-methylumbelliferyl phosphate substrate was hydrolyzed by SEAP to 4-methylumbelliferon, a metabolite that can be excited with 364 nm and detected with an emission filter of 448 nm. Since SEAP is used as a marker for cell viability, reduced SEAP reading corresponds with increased iCaspase-9 activities.

Row | Molecule | relative SEAP activity Units (basal, without AP1903)
1 | B1 | 205772

Same assay, conditions: 2 μg iCasp9 per million cells

Row | Molecule | relative SEAP activity Units (basal, without AP1903)
2 | B1 | 174366

Same assay, conditions: in words, versus wild type

Row | Molecule | effect on basal / catalytic activity
3 | B2 | no effect
4 | B3 | catalytically inactive
5 | B4 | catalytically inactive
6 | B5 | catalytically inactive
7 | B6 | reduced basal activity but higher IC50
8 | B7 | lowered basal activity
9 | B8 | catalytically inactive
10 | B9 | no effect
11 | B1 | intermediate
12 | B10 | did not lower basal activity
13 | B11 | did not lower basal activity
14 | B12 | did not lower basal activity
15 | B13 | did not lower basal activity
16 | B14 | less basal activity than wild type Caspase-9
17 | B15 | did not lower basal activity
18 | B16 | can reduce basal activity without a large shift in the IC50
19 | B17 | did not lower basal activity
20 | B18 | did not lower basal activity
21 | B19 | did not lower basal activity
22 | B20 | no effect
23 | B21 | did not lower basal activity
24 | B22 | less basal activity than wild type Caspase-9
